Source: patent publication EP3636320A1 (Numab Therapeutics AG, dated 2020)
Substitutions are numbered along the chain they refer to.

Molecular target: human CD137 expressed on Jurkat cells (human, UniProt Q07011 24-255)
Test: cell-based or functional assay

B1: PRO1480 (other)
chain: DIQMTQSPASLSASVGDRVTITCQASQSIGTYLAWYQQKPGKPPKLLIYRAFILASGVPSRFSGSGSGTDFTLTISSLQPEDFATYYCQSNFYSDSTTIGPNAFGTGTKVTVLGGGGGSEVQLVESGGGLVQPGGSLRLSCAASGFSFSANYYPCWVRQAPGKGLEWIGCIYGGSSDITYDANWTKGRFTISRDNSKNTVYLQMNSLRAEDTAVYYCARSAWYSGWGGDLWGQGTLVTVSSGGGGSGGGGSGGGGSGGGGSIQMTQSPSSLSASVGDRVTITCQASQSISNRLAWYQQKPGKAPKLLIYSASTLASGVPSRFSGSGSGTDFTLTISSLQPEDFATYYCQSTYYGNDGNAFGTGTKVTVLGGGGGSEVQLVESGGGLVQPGGSLRLSCAASGFSFNSDYWIYWVRQAPGKGLEWIASIYGGSSGNTQYASWAQGRFTISRDNSKNTVYLQMNSLRAEDTAVYFCARGYVDYGGATDLWGQGTLVTVSSGGGGSGGGGSIQMTQSPSSLSASVGDRVTITCQSSESVYSNNQLSWYQQKPGQPPKLLIYDASDLASGVPSRFSGSGSGTDFTLTISSLQPEDFATYYCAGGFSSSSDTAFGGGTKLTVLGGGGGSGGGGSGGGGSGGGGSEVQLVESGGGLVQPGGSLRLSCAASGFSLSSNAMGWVRQAPGKGLEYIGIISVGGFTYYASWAKGRFTISRDNSKNTVYLQMNSLRAEDTATYFCARDRHGGDSSGAFYLWGQGTLVTVSS
IC50 (ng/ml), activation of NF-kB reporter gene, HCC827 +IFNg, 6 h, with HSA: 6.44 ng/mL
IC50 (ng/ml), activation of NF-kB reporter gene, HCC827 +IFNg, 24 h, with HSA: 4.67 ng/mL

B2: PRO1481 (other)
chain: B1 chain with V121S, Y216F, Q233P, I262F, M264L, A303P
IC50 (ng/ml), activation of NF-kB reporter gene, HCC827 +IFNg, 6 h, with HSA: 7.22 ng/mL
IC50 (ng/ml), activation of NF-kB reporter gene, HCC827 +IFNg, 24 h, with HSA: 5.51 ng/mL
